{"source": "patent US12559560B2", "about": "“Antibody-based compositions for targeting tropomyosin receptor kinase B (TrkB) isoforms” (Fred Hutchinson Cancer Center, priority 2020, dated 2026)", "type_in_all_cases": "binding", "key": {"[1]": {"target": "T1, full length TrkB.T1 protein (Mus musculus, UniProt P15209)", "T1 construct": "mouse brain lysates from TrkB.T1^+/+ and TrkB.T1^−/− mice were prepared by mechanical disruption; from tissue; host or cells: mouse brain (TrkB.T1+/+ wild type; TrkB.T1-/- as negative control)", "T1 sequence (P15209 32-476 isoform P15209-2 limits assumed)": "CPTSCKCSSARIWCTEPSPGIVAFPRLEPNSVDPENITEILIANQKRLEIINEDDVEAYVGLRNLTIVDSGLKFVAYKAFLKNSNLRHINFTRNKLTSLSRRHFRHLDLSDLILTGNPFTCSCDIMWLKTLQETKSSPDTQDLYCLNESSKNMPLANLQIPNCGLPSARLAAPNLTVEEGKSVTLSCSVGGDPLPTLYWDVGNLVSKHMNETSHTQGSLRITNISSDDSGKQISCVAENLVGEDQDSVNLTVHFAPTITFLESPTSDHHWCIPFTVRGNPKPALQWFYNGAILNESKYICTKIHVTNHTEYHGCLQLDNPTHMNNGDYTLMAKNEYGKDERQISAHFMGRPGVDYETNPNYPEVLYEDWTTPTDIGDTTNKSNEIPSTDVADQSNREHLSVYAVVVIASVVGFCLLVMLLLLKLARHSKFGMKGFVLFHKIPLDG", "assay": "Wes capillary Western blot of mouse brain detergent extracts (antibody screening Stage 2)", "conditions": "normal and KO mouse brain detergent extracts; monoclonal culture super diluted 1:2", "experimental": "Wes™ capillary electrophoresis for antibody development. Protein Simple Wes™ was used at two stages of antibody screening: Stage 1, selecting immunized mice to advance for hybridoma generation, and Stage 2, for validation of monoclonal antibodies that Western blot full-length TrkB.T1 protein in murine brain detergent extracts. Briefly, mouse brain lysates from TrkB.T1^+/+ and TrkB.T1^−/− mice were prepared by mechanical disruption (Dounce tissue homogenizer, Kimble Chase) in RIPA lysis buffer (Pierce™ RIPA Lysis and Extraction Buffer, ThermoScientific™) containing HALT™ Protease and Phosphatase Inhibitor Cocktail and EDTA (ThermoScientific™) and normalized to 2 μg/μl total protein via Bradford Protein Assay. Approximately 8-10 ng total brain extract protein was loaded into the Protein Simple Capillary WES system for Western analysis following Protein Simple recommended methods (Rustandi, R. R., et al. Applications of an automated and quantitative CE-based size and charge western blot for therapeutic proteins and vaccines. Methods Mol. Biol. 1466, 197-217 (2016)). Mice with antisera (1:2500 dilution in PBS and Antibody Diluent (Protein Simple)) that identified a positive band at 90-100 kDa for the TrkB.T1 protein were advanced forward for final boosting, splenectomy, and hybridoma generation (FIG. 3B). […]"}, "[2]": {"target": "T2, TrkB.T1 (Mus musculus, UniProt P15209)", "T2 construct": "from tissue; host or cells: formalin-fixed paraffin-embedded mouse brain and RCAS/tv-a mouse gliomas", "T2 sequence (P15209 32-476 isoform P15209-2 limits assumed)": "as above", "assay": "TrkB.T1 immunohistochemistry on mouse brain / mouse tumors", "experimental": "(§1) Antibody validation phase—large batch IHC. Four-μm sections of a multi-tissue block containing human brain, mouse brain, TrkB.T1^−/− mouse brain, a cell pellet over-expressing TrkB.T1 and a cell pellet without TrkB.T1 were cut and stained with the Leica Bond Rx (Leica Biosystems, Buffalo Grove, IL). Slides were pretreated with H2 antigen retrieval buffer for 20 min. Endogenous peroxidase was blocked with 3% hydrogen peroxide for 5 min. A TCT protein block was applied for 10 min (0.05 M Tris, 0.15 M NaCl, 0.25% Casein, 0.1% Tween 20, pH 7.6). Supernatants from multiple boosting and pre-/post-fusion samples, along with antibody clone D12 were used at 1:20 and applied to the tissue for 30 min. The antibody was then detected using Leica Power Vision HRP Mouse specific polymer (Leica Biosystems catalog #PV6114) for 12 min and staining was visualized with Refine DAB (Leica Biosystems catalog #D59800) and a hematoxylin counterstain was used (Hematoxylin 50% in H2O from Biocare catalog #NM-HEM-M). Mouse isotype control slides were included for each run (Jackson ImmunoResearch Laboratories) at 2 μg/ml. Digital images of IHC-stained slides were obtained at ×40 magnification (0.25 μm/pixel) using a whole slide scanner (ScanScope AT Turbo, Aperio) fitted with a 20×/0.75 Plan Apo objective lens and ×2 magnification changer (Olympus, Center Valley, Pa., USA). […]"}, "[3]": {"target": "T3, TrkB.T1 (Homo sapiens, UniProt Q16620)", "T3 construct": "To determine endogenous localization of TrkB.T1 in human brain, a monoclonal antibody; from tissue; host or cells: normal human brain (rapid autopsy, FFPE sections)", "T3 sequence (Q16620 32-477 isoform Q16620-2 limits assumed)": "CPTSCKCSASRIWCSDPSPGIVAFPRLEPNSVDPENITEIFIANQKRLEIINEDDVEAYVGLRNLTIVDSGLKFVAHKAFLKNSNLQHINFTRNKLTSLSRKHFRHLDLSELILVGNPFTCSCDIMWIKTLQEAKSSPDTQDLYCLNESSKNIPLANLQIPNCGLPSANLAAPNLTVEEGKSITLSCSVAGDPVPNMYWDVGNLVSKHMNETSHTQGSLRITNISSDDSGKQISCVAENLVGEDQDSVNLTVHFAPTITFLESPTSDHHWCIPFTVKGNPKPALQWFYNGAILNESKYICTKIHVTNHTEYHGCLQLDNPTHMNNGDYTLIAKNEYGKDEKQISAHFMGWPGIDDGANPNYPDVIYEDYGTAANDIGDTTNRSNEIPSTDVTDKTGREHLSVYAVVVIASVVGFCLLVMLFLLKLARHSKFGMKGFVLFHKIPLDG", "assay": "TrkB.T1 immunohistochemistry on human brain", "experimental": "as §1"}}}
{"molecule": "Clone FH1D12: Murine monoclonal antibody to the TrkB.T1 C-terminal peptide … (SEQ ID NO:1), raised in TrkB.T1 null mice (antibody, V domains shown) VL: QTVVTQESALTTSPGETVTLTCRSSTGAVTTSNYANWVQEKPDHLFTGLIGGINNRAPGVPARFSGSLIGDKAVLTITGAQTEDEAIYFCALWYSNHWVFGGGTKLTVL VH: VQLQQSGPELARPWASVKISCQAFYTFSRGIHFDIRNTMYWIQWVKQRPGQGLEWIGAIYPGNGDPTYSQNFKDKATLTADKSSNTAYMQLSSLTSEDSAVYYCARYDYGGGFTYWGQGTLVTVSAGS", "values": [{"measurement": "Western blotting activity (full length TrkB.T1 protein)", "setting": "[1]", "value": "positive"}, {"measurement": "staining in TrkB.T1-/- knockout mouse brain", "setting": "[2]; TrkB.T1-/- knockout mouse brain (specificity control)", "value": "absent"}, {"measurement": "immunostaining in wild-type (WT) mouse brain", "setting": "[2]; wild-type mouse brain", "value": "positive"}, {"measurement": "immunostaining in human brain", "setting": "[3]", "value": "positive"}]}
